Experimental data as given in patent US10383919B1, “Fragments of growth hormone binding protein” (The University of the Sciences, priority 2013, dated 2019).
Where no end group is shown, it is not given here.

Assays:
[1] = target: T1, rhGH (Homo sapiens, UniProt P01241); experiment: Equilibrium dialysis of GHBP peptides against rhGH (12-14 kDa MWCO membrane, MICRO-BCA read-out of lower chamber); format: binding; conditions: 1:1 ratio of rhGH:peptide; 0.25 mg/ml hGH stock; starting peptide 11.36 uM; 37° C., 24 hours
T1 construct: purchased Bresagen, Adelaide, Australia
Protocol: Equilibrium Dialysis: High Throughput Equilibrium Dialysis was performed using the 96-well Micro-Equilibrium Dialysis Device HTD (HTDialysis, LLC, CT, USA) according to the supplier's directions. The dialysis membrane was a SPECTRA/POR cellulose ester membrane. We tested a 3.5-5 kDa Molecular Weight Cut-off (MWCO) SPECTRA/POR membrane and a 12-14 kDa Molecular Weight Cut-off (MWCO) SPECTRA/POR membrane for their ability to allow peptide equilibration. Peptides were added to the upper chamber of each well of both a 3.5-5 kDa MWCO and a 12-14 kDa MWCO membrane and incubated at 37° C. with shaking at 200 rpm for 24 hours. Concentration of the peptide in the upper and lower chamber was assayed using MICRO-BCA Assay (Pierce) according to the supplier's directions.
We then confirmed the ability of the 12-14 kDa MWCO membrane to retain the hGH. Lyophilized recombinant hGH (Bresagen, Adelaide, Australia) was dissolved in phosphate-buffered saline (PBS) plus 0.05% sodium azide. One-hundred uL of a 25 mg/mL solution plus 100 uL of PBS were added to the upper chamber of the micro-dialysis device fitted with a 12-14 kDa MWCO membrane and incubated at 37° C. with shaking at 200 rpm for 24 hours. Concentration of hGH in the upper and lower chamber was assayed using MICRO-BCA Assay (Pierce) according to the supplier's directions. […] We used the 12-14 kDa MWCO membrane for our binding assays.
The upper chamber of each well received 100 uL of 0.25 mg/ml hGH and 100 uL of a 22.72 uM peptide solution. The lower chamber of each well received 100 uL of buffer and 100 uL of a 22.72 uM peptide solution. Thus, the starting concentration of peptide in both the upper and lower portion of each well was 11.36 uM. Plates were incubated at 37° C., with shaking at 200 rpm for 24 hours. […] The assay was configured with a 1:2 sample: working reagent ratio and incubated 45° C. for 4 hours and read in a spectrophotometer at 562 nm. Concentrations of peptide in the lower chamber were determined based on the equations generated by the standard curves for each peptide. […]

[2] = cited from earlier work

T1 sequence (P01241 27-217): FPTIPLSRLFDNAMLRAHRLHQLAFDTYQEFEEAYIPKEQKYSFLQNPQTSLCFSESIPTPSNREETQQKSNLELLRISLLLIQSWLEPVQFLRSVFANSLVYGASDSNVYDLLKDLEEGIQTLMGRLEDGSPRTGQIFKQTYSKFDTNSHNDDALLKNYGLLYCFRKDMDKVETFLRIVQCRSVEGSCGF

| Substance | concentration of peptide in the lower chamber in the presence of rhGH (binding to rhGH) [1] | half-life in the bloodstream [2] |
| --- | --- | --- |
| TSIWIPYCIGKCFSVDEIVQPD (TSIWIPYCIGKCFSVDEIVQPD; not fully specified; printed as Thr-Ser-Ile-Trp-Ile-Pro-Tyr-Cys-Ile-Gly-Lys-Cys-Phe-Ser-Val-Asp-Glu-Ile-Val-Gln-Pro-Asp; cysteine pairing not given here; listed as Homo sapiens) [Peptide 7, Peptide 5 & Peptide 6 bridged] | substantially reduced | – |
| S-P-E-R-E-T-F-S (SPERETFS; listed as Homo sapiens) [Peptide 1, hGHBP fragment Serine-40 to Serine-47] | substantially reduced | – |
| R-R-N-T-Q-E (RRNTQE; listed as Homo sapiens) [Peptide 3, hGHBP fragment Arginine-70 to Glutamate-76] | substantially reduced | – |
| hGH: Human growth hormone (somatotropin or somatropin), a peptide hormone; recombinant hGH (Bresagen) was used in the binding assays | – | about fifteen |
